Measurements taken from IntAct's records for PubMed 23238393.

B1: Ubiquitin-like protein ATG12B (Arabidopsis thaliana (Mouse-ear cress)), Q9LVK3 (parent)
chain: MATESPNSVQKIVVHLRATGGAPILKQSKFKVSGSDKFANVIDFLRRQLHSDSLFVYVNSAFSPNPDESVIDLYNNFGFDGKLVVNYACSMAWG
partner: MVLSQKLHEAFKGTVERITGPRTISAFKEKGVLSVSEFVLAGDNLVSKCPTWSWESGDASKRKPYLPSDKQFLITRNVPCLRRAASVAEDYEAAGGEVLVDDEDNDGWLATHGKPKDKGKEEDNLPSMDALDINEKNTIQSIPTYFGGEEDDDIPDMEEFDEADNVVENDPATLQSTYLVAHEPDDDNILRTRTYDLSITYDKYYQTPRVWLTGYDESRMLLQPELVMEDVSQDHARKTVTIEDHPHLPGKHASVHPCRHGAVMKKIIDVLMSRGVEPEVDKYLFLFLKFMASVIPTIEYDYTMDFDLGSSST

Variants of: B1
Details: with atg3_arath ATG3, Q0WWQ1

Row | effect of a mutation on the interaction | Variant
1 | decreasing interaction | Y57A

Variants of: B1
Details: with atg3_arath ATG3, Q0WWQ1
Remark: another data set of the same source

Row | effect of a mutation on the interaction | Variant
2 | decreasing interaction | F62A
